We go through 5 molecules from publication PMC2774616, “Cellular Assays for High-Throughput Screening for Modulators of Trk Receptor Tyrosine Kinases” (Current Chemical Genomics, 2008).

Format in all cases: cell-based
Experiment [1] concerns Thapsigargin-induced NFAT reporter activity, TrkC-NFAT-bla CHO-K1 cells. Description: Inhibition of Thapsigargin-induced NFAT reporter activity in TrkC-NFAT-bla CHO-K1 cells. Particulars: TrkC cells, Thapsigargin 8 nM, 5 h; * values may not be accurate, curves did not reach saturation; read-out: IC50, TrkC, Thaps. Here is the method:
(§1) Cells in a sub-confluency state (or cryopreserved cells) were resuspended in Assay Medium (DMEM with GlutaMAX™ (Invitrogen, catalog number 10569) supplemented with 0.1% dialyzed FBS, 0.1 mM NEAA, 25 mM HEPES, 100 U/mL Penicillin and 100 µg/mL Streptomycin) and plated in a 384-well assay plate (Corning, Lowell, MA, catalog number 3712) at 10,000 cells (32 μL) per well. 32 μL of Assay Medium without cells were plated in Cell-free Control wells on the same plate. 4 µL 1% DMSO was added to each well to reach final DMSO concentration of 0.1% to mimic the screening situation where compounds dissolved in DMSO are added to test wells. Cells were then stimulated with 4 µL/well 10 x ligands (NGF, BDNF, NT-4 (Invitrogen, catalog number PHC7024), NT-3 or Thapsigargin (Sigma, St. Louis, MO)) over the indicated concentration range (1 pM ~ 50000 pM) for 5 hours before adding 8 µL/well 6X LiveBLAzer™-FRET B/G Substrate mixture (Invitrogen, catalog number K1096) for 2 hours. Fluorescence intensity at excitation 406 nm and emission 460 nm and 530 nm were obtained using Tecan Safire^2 fluorescence plate reader (Tecan, Durham, NC) (Table 1). After subtracting the average fluorescence intensity from the Cell-free Control wells, the 460nm/530nm emission ratio was calculated. Response Ratio is a measurement of the assay window and is calculated as the 460nm/530nm Emission Ratio of the stimulated wells divided by the 460nm/530nm Emission Ratio of the unstimulated wells. Response Ratios were plotted against test ligand concentrations in log scale and then analyzed using Prism software (GraphPad Software, Inc. San Diego, CA). Sigmoidal dose-response equation with varying slope was used to fit the data and generate EC50 values. Z’-factor values were calculated as: Z’-factor = 1 - [(3 x stdevunstim + 3 x stdevmaxstim) / (avgmaxstim – avgunstim)].
(§2) Cells were then stimulated with 4 µL of neurotrophins at 10 x EC80 concentrations (EC80 concentrations are: NGF, 0.77 nM; BDNF, 1 nM; NT-3, 0.72 nM; Thapsigargin, 8 nM) for 5 hours before beta-lactamase assay was performed as described above.

For experiment [2], the system named is Thapsigargin-induced NFAT reporter activity, TrkA-NFAT-bla CHO-K1 cells. Kind of experiment: Inhibition of Thapsigargin-induced NFAT reporter activity in TrkA-NFAT-bla CHO-K1 cells. Particulars: TrkA cells, Thapsigargin 8 nM, 5 h; * values may not be accurate, curves did not reach saturation; read-out: IC50, TrkA, Thaps. Here is the method:
as §1, §2

In experiment [3] the test system is Thapsigargin-induced NFAT reporter activity, TrkB-NFAT-bla CHO-K1 cells. Description: Inhibition of Thapsigargin-induced NFAT reporter activity in TrkB-NFAT-bla CHO-K1 cells. Particulars: TrkB cells, Thapsigargin 8 nM, 5 h; * values may not be accurate, curves did not reach saturation; read-out: IC50, TrkB, Thaps. Here is the method: as §1, §2
The target of the next experiment is T1, human TrkC (Homo sapiens, UniProt Q16288).
T1 construct: Full length human TRKA, TRKB and TRKC cDNAs were synthesized by Blue Heron Biotechnology; expressed in transfected cells
T1 sequence (Q16288 32-825 isoform Q16288-3 limits assumed): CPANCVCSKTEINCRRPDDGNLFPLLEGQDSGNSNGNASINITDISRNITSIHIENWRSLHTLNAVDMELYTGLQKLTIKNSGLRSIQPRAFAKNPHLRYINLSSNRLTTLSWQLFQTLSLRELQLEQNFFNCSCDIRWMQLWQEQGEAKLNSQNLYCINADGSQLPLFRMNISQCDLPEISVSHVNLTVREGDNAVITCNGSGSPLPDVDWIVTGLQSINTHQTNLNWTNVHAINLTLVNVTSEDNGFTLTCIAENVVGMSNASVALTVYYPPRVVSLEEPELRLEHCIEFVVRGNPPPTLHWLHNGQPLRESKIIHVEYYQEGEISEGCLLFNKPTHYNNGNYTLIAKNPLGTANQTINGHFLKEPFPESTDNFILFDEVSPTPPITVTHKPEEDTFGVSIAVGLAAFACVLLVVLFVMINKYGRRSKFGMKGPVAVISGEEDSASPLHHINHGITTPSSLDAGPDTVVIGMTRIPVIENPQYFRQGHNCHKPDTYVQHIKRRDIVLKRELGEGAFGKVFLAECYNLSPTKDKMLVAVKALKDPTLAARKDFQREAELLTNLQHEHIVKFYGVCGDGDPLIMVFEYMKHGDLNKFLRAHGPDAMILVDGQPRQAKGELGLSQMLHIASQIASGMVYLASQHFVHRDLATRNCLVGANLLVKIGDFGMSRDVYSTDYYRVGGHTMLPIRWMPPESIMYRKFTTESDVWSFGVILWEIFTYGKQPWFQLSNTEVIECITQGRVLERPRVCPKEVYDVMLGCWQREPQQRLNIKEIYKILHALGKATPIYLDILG
Kind of experiment: Neurotrophin dose response, beta-lactamase reporter assay in TrkC-NFAT-bla CHO-K1 cells. Conditions: for EC50: 5 h stimulation, 0.1% DMSO, * values may not be accurate, curves did not reach saturation; for response of TrkC-NFAT-bla CHO-K1 cells (in words): up to 50 nM.
From the text: (§3) NFAT beta-lactamase reporter line NFAT-bla CHO-K1 cells (Invitrogen, Carlsbad, CA, catalog number K1078) were transfected using Lipofectamine™ LTX transfection reagent (Invitrogen, Carlsbad, CA) with pcDNA6-TRKA, pcDNA6-TRKB and pcDNA6-TRKC and selected for blasticidin-resistance. Blasticidin-resistant TrkA transfected cells were stimulated with NGF (Invitrogen, catalog number 13257-019), TrkB transfected cells with BDNF (Invitrogen, catalog number PHC7074) and TrkC transfected cells with NT-3 (Invitrogen, catalog number PHC7034) for 5 hours before neurotrophin stimulated beta-lactamase expressing cells were collected by FACS as single cells onto 96-well plates. The survived clones that responded to the respective ligand were selected and expanded. The clone with the best response to each ligand was further tested in a 384-well format for the dose response of neurotrophins and inhibitors and in a 96-well format for RNAi knock-down.
as §1

The target in another experiment is T2, human TrkB (Homo sapiens, UniProt Q16620).
T2 construct: Full length human TRKA, TRKB and TRKC cDNAs were synthesized by Blue Heron Biotechnology; expressed in transfected cells
T2 sequence (Q16620 32-838 isoform Q16620-4 limits assumed): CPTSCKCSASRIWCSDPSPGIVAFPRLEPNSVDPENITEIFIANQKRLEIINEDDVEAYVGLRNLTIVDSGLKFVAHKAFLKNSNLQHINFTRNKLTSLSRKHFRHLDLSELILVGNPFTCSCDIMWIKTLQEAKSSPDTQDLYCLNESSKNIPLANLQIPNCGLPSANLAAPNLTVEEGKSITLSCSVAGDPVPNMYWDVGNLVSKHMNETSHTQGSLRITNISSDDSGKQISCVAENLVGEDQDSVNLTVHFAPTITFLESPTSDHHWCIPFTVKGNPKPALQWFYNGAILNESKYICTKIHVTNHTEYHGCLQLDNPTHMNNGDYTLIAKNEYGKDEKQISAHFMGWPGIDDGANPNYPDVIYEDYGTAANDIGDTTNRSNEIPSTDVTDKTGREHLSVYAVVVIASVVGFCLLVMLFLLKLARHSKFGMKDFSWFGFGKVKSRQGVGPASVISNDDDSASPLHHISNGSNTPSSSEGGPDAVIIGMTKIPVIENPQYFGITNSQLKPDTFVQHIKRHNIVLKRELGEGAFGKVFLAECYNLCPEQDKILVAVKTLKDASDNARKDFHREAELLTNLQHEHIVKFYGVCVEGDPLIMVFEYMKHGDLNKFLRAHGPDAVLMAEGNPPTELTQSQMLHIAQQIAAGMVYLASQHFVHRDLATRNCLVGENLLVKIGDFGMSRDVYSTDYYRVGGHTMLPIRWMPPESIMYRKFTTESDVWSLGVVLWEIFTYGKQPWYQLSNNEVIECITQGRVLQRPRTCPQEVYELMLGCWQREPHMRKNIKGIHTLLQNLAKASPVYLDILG
Kind of experiment: Neurotrophin dose response, beta-lactamase reporter assay in TrkB-NFAT-bla CHO-K1 cells. Particulars: for maximum response ratio, TrkB-NFAT-bla CHO-K1: 460nm/530nm ratio stimulated vs unstimulated; for EC50: 5 h stimulation, 0.1% DMSO.
From the text: as §3, §1
A general note: Reporter assays use an easily measured gene product as a stand-in for the process of interest.

A further experiment deals with T3, human TrkA (Homo sapiens, UniProt P04629).
T3 construct: Full length human TRKA, TRKB and TRKC cDNAs were synthesized by Blue Heron Biotechnology; expressed in transfected cells
T3 sequence (P04629 33-796): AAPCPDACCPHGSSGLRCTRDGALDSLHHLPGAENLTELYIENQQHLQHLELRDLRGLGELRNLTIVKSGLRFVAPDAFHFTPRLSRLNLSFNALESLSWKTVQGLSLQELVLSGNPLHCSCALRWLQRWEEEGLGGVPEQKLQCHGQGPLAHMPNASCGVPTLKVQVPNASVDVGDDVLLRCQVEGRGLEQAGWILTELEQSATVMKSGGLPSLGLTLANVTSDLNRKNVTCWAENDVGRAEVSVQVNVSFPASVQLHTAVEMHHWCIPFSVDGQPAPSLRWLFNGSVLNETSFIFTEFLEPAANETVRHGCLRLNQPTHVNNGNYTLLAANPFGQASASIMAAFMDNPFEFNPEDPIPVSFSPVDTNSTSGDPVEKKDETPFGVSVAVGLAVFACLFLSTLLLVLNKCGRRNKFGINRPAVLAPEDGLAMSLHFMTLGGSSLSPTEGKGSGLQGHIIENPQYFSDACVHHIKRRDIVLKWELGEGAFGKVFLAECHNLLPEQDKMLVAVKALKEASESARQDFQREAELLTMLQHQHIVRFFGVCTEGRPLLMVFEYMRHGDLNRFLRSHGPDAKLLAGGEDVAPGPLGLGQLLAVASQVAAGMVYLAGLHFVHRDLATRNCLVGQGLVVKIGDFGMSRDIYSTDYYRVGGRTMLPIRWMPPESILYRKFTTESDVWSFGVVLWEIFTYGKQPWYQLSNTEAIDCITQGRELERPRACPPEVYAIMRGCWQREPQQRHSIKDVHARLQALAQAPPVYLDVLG
Kind of experiment: Neurotrophin dose response, beta-lactamase reporter assay in TrkA-NFAT-bla CHO-K1 cells. Particulars: for maximum response ratio / response over baseline, TrkA-NFAT-bla CHO-K1: 460nm/530nm ratio stimulated vs unstimulated; for EC50: 5 h stimulation, 0.1% DMSO, * values may not be accurate, curves did not reach saturation; for response of TrkA-NFAT-bla CHO-K1 cells (in words): up to 50 nM.
From the text: as §3, §1

Setting [4] is: used for stimulation in inhibitor assay.

Where “and” joins values, the source holds several entries; their conditions need not be identical. Identical values can stand only once. Bounds are passed on as bounds.

The IC50 is the concentration that gives 50% inhibition. For the molecule `Cn1cc(/C=C2\C(=O)Nc3cccnc32)c2ccccc21` [GW441756], the IC50 was 8970 nM in experiment [1], 2830 nM in experiment [2] and 8200 nM in experiment [3].
As a reminder, the EC50 is the concentration giving half of the maximal effect. Lower therefore signals greater potency. Take “NT-3: neurotrophin 3, preferred ligand of TrkC”: the “maximum response ratio, TrkC-NFAT-bla CHO-K1” value with human TrkC (460nm/530nm ratio stimulated vs unstimulated) is reported as 8.5. Besides, in the experiment with human TrkC, the EC50 was 0.093 nM and 0.09 nM. Further, the “EC80 concentration, TrkC cells” value with human TrkC (setting [4]) is 0.72 nM. Besides, in the experiment with human TrkB, the “maximum response ratio, TrkB-NFAT-bla CHO-K1” value turned out to be 13 and the EC50 is 2.5 nM. Besides, in the experiment with human TrkA, the “maximum response ratio / response over baseline, TrkA-NFAT-bla CHO-K1” value was found to be 3 fold; the EC50 is ~16 nM and 16 nM.

B1: NGF: nerve growth factor, neurotrophin, preferred ligand of TrkA (protein, UniProt P01139 122-241, looked up)
Beta-nerve growth factor: SSTHPVFHMGEFSVCDSVSVWVGDKTTATDIKGKEVTVLAEVNINNSVFRQYFFETKCRASNPVESGCRGIDSKHWNSYCTTTHTFVKALTTDEKQAAWRFIRIDTACVCVLSRKATRRG
In the case of B1, the EC50 with human TrkC was over 50 nM; with human TrkB, over 50 nM; in the experiment with human TrkA it was 0.044 nM; with human TrkA (listed as NGF 2.5s), 0.04 nM. For the same molecule, the “response of TrkC-NFAT-bla CHO-K1 cells (in words)” value with human TrkC was “did not show any response”. Further, the “response of TrkB-NFAT-bla CHO-K1 cells (in words)” value with human TrkB (up to 50 nM) is “did not respond at all”. The “maximum response ratio / response over baseline, TrkA-NFAT-bla CHO-K1” value in the experiment with human TrkA is 5.5 fold. Moreover, the “EC80 concentration, TrkA cells” value with human TrkA (setting [4]) turned out to be 0.77 nM.

B2: NT-4: neurotrophin 4, ligand of TrkB (protein, UniProt P34130 81-210, looked up)
Neurotrophin-4: GVSETAPASRRGELAVCDAVSGWVTDRRTAVDLRGREVEVLGEVPAAGGSPLRQYFFETRCKADNAEEGGPGAGGGGCRGVDRRHWVSECKAKQSYVRALTADAQGRVGWRWIRIDTACVCTLLSRTGRA
B2: in the experiment with human TrkC, the EC50 was over 50 nM and the “response of TrkC-NFAT-bla CHO-K1 cells (in words)” value is reported as “did not show any response”. Also, in the experiment with human TrkB, the “maximum response ratio, TrkB-NFAT-bla CHO-K1” value was found to be 13 and it took 3.5 nM to reach a half-maximal effect (EC50). In the experiment with human TrkA, the EC50 was over 50 nM and the “response of TrkA-NFAT-bla CHO-K1 cells (in words)” value is reported as “minimal effect”.

B3: BDNF: brain-derived neurotrophic factor, neurotrophin, ligand of TrkB (protein, UniProt P23560 19-247, looked up)
Neurotrophic factor BDNF …: APMKEANIRGQGGLAYPGVRTHGTLESVNGPKAGSRGLTSLADTFEHVIEELLDEDQKVRPNEENNKDADLYTSRVMLSSQVPLEPPLLFLLEEYKNYLDAANMSMRVRRHSDPARRGELSVCDSISEWVTAADKKTAVDMSGGTVTVLEKVPVSKGQLKQYFYETKCNPMGYTKEGCRGIDKRHWNSQCRTTQSYVRALTMDSKKRIGWRFIRIDTSCVCTLTIKRGR
On to B3, for which, in the experiment with human TrkC, the response was half-maximal at 28 nM (EC50) and the “response of TrkC-NFAT-bla CHO-K1 cells (in words)” value is listed as “only at the highest concentration (50 nM) tested”. Moreover, in the experiment with human TrkB, the “maximum response ratio, TrkB-NFAT-bla CHO-K1” value was determined as 14 and the EC50 was 0.39 nM. The “EC80 concentration, TrkB cells” value with human TrkB (setting [4]) is 1 nM. Moreover, in the experiment with human TrkA, the EC50 was over 50 nM and the “response of TrkA-NFAT-bla CHO-K1 cells (in words)” value is on record as “minimal effect”.
